# Measured values published in patent US20170119874A1 (INSTITUTE FOR RESEARCH IN BIOMEDICINE, published 2017).
# What was measured:
# Assay in all cases: cell-based or functional assay
# [1] = target: T1, gHgLpUL128pUL130 (HEK293T cells transfected with the HCMV genes) (HCMV, UniProt P12824 24-743; P16832 31-278; P16837 1-171; P16772 1-214)
# T1 sequence (looked up) 1: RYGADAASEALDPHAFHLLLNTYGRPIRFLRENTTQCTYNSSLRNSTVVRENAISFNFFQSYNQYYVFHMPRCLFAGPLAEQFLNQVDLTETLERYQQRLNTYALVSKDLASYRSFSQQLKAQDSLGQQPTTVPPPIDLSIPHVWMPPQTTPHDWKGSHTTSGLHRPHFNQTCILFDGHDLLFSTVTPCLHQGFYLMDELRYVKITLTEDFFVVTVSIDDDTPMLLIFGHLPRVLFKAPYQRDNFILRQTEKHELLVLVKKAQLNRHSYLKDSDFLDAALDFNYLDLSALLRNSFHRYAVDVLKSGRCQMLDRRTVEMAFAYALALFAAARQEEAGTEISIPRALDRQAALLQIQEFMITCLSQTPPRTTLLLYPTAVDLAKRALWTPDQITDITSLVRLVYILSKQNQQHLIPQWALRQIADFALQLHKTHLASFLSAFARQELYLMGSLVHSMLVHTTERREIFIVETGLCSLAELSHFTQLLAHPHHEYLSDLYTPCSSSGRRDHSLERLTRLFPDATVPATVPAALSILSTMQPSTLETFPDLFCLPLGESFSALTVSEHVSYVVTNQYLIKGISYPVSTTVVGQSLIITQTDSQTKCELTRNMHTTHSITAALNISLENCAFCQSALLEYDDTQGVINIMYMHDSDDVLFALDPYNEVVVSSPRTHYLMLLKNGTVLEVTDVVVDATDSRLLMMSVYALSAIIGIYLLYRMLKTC
# T1 sequence (looked up) 2: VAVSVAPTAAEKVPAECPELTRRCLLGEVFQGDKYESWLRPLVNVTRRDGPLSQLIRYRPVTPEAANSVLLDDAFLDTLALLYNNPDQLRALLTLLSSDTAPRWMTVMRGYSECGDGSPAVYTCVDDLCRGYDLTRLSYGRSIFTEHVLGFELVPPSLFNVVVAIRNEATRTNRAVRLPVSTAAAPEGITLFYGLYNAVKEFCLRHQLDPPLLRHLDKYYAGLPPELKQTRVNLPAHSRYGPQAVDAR
# T1 sequence (looked up) 3: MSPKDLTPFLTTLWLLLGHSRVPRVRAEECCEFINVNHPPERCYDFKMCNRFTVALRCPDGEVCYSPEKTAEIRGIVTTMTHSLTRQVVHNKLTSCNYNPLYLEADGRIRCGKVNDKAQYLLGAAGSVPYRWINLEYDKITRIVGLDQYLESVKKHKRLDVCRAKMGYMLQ
# T1 sequence (looked up) 4: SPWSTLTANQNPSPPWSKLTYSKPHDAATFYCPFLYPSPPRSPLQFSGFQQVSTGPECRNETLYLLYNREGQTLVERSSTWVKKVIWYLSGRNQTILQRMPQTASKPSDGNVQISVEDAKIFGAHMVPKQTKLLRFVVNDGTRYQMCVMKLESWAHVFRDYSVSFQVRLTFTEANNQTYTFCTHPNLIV
# [2] = target: T2, pUL130pUL131 (HEK293T cells transfected with the HCMV genes) (HCMV, UniProt P16772 1-214; F5HET4 19-129)
# T2 sequence (looked up) 1: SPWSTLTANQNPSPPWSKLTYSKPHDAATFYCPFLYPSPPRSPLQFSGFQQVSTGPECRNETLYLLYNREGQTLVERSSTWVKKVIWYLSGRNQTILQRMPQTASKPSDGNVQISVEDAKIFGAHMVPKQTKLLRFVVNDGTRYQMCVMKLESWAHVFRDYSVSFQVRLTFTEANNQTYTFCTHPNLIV
# T2 sequence (looked up) 2: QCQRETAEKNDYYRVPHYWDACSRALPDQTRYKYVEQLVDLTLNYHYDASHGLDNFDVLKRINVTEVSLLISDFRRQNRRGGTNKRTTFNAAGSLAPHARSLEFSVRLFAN
# [3] = target: T3, pUL128pUL130pUL131 (HEK293T cells transfected with the HCMV genes) (HCMV, UniProt P16837 1-171; P16772 1-214; F5HET4 19-129)
# T3 sequence (looked up) 1: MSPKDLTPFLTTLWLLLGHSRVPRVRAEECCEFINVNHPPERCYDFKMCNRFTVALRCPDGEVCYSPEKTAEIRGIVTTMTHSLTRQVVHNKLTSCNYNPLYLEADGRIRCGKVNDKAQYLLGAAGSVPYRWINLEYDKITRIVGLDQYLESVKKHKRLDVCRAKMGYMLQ
# T3 sequence (looked up) 2: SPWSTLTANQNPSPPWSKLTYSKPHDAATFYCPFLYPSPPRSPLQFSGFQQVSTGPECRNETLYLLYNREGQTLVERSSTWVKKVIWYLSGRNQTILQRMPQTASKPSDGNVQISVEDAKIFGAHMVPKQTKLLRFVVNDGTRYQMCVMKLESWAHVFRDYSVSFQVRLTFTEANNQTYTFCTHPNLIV
# T3 sequence (looked up) 3: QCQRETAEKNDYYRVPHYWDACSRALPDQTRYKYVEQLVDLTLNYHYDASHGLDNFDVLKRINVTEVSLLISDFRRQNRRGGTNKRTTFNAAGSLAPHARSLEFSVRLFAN
# [4] = target: T4, pUL128 (HEK293T cells transfected with the HCMV gene) (HCMV, UniProt P16837 1-171, limits assumed)
# T4 sequence (looked up): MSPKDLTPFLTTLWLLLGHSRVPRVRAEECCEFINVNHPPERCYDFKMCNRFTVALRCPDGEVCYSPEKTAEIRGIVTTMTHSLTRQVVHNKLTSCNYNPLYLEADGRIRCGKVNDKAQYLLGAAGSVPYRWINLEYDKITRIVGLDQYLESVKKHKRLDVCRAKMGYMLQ
binder,measurement,setting,value
"human monoclonal antibody 8I21 (antibody, V domains shown) VH: LVELVESGGGVVQPGRSLRLSCAASGFTFSSDGMHWVRQSPGRGLEWVAFISSDGSTPYYADSVKGRFTISRDNSKNTLYLQMNSLRAEDTAMYFCAKDWALFRWLRTFDHWGQGTLVTVSS VL: not shown","Log IC80, neutralization of HCMV infection of epithelial cells",[1],-9.5 log IC80 (concentration unit not printed)
"human monoclonal antibody 10P3 (antibody, V domains shown) VH: EVQLVESGGGLVRPGGSLRLSCAASGFTFHNYRMNWVRQAPGKGLEWVANIKQDGSEKSYVDSVRGRFTTSRDNSKNSLYLQINSLRAEDTAVYYCARGEGYTYGVVYSYSAMDVWGQGTTVIVSS VL: SYELTQPPSVSVSPGQTARITCSGNVLPNQYASWYQQKPGQAPVLVIYKDTERPSGIPGRFSGSSSGTTVTLTISGVQAEDEADYYCQSADSSGADYVFGTGTKVTVL","Log IC80, neutralization of HCMV infection of epithelial cells",[2],-10.5 log IC80 (concentration unit not printed)
"human monoclonal antibody 8J16 (antibody, V domains shown) VH: QVQLQESGPGLVKPSETLSLTCSVSGGFTSSYYWSWIRQAPGKGLEWIGYVYYGESTDYNPSLKSRATISIDTSKNQFSLKLSSVTAADTAVYYCAREVDKRGFDYWGQGALVTVSS VL: EIVLTQSPGTLSLSPGERATLSCRASQSVSGGYLAWYQQEPGQAPRLVIYGASSRATGIPDRFSASGSGTDFTLTITRLEPEDFAVYYCQQYGRTPLTFGGGTKVEIK","Log IC80, neutralization of HCMV infection of epithelial cells",[3],-12.3 log IC80 (concentration unit not printed)
"human monoclonal antibody 15D8 (antibody, V domains shown) VH: EVQLVQSGAEVKKPGESLKISCQASGYSFTNYWIAWVRQMPGKGLEWMGIIYPGDSDIKYSPSFRGQVTISADKSISNAFLQWRSLRASDTAMYYCARHAIRGDGFDYWGQGTLVTVSS VL: SYELTQPPSVSVSPGQTATITCSGDKLGEKYACWYQQKPGQSPVLVMYQDTKRPSGIPERFSGSNSGNTATLTISGTRAMDEADYYCQAWDTNTVIFGGGTKLTVL","Log IC80, neutralization of HCMV infection of epithelial cells",[4],-11 log IC80 (concentration unit not printed)
"human monoclonal antibody 8L13 (antibody, V domains shown) VH: QVQLLESGGGVVQPGRSLRLSCAASGFTFSNYGMHWVRQAPGKGLEWVAVIWNDGSKKYYAESVKGRFTISRDNSKNTVYLQMNSLRAEDTAVYYCARDEGVQMVFAMPDYGMDVWGQGTTVTVSS VL: SYELTQPPSVSVSPGQTASITCSGDKLGDKFACWYQQRPGQSPILVIYQDSKRPSGIPERFSGSNSGNTATLTIRGTQAMDEADYYCQAWDSSTAHYVFGTGTKVTVL","Log IC80, neutralization of HCMV infection of epithelial cells",[2],-11.6 log IC80 (concentration unit not printed)
"human monoclonal antibody 7I13 (antibody, V domains shown) VH: QVQLVESGGGVVQPGRSLRLSCAASGFTFSNYGMHWVRQGPGKGLEWVAVISYDASSKYYTDSVQGRFTISRDNSKNTLFLQMNSLRGEDTAVYYCAKALRYLDWFLSDPFDYWGQGTLVTVSS VL: EIVLTQSPGTLSLSPGERATLSCRASQSVSSDFLAWYQQKPGQAPRLLIYGASSRATGIPDRFSGSGSGTDFTLTISRLEPEDFAVYYCQQYAASPPFGQGTRLEIK","Log IC80, neutralization of HCMV infection of epithelial cells",[3],-11 log IC80 (concentration unit not printed)
